Results on four substances are retold here after patent US5820866.

The target of test [1] is IA^b protein (membrane-bound, without covalent peptide). The experiment in a line: inferred from IL-2 production by BO.97.10 with fibroblasts and added cOVA peptide.
Test [2] has the same target. As to the kind of experiment: inferred from IL-2 production by BO.97.10 with M12.C3 cells and added cOVA peptide.
Test [3] concerns the target IA^d -OVA protein (soluble IA^d αβ dimer with cOVA peptide (327-339) joined by a linker to IAβ^d) (murine).
The target of test [4] is IE^kd -MCC protein (soluble IE^kd αβ dimer with MCC peptide (91-103) joined by a linker to IEβ^k) (murine).
Test [5] concerns the target IA^b -Ea protein (membrane-bound IA^b with IEα^d peptide (56-73) joined by a linker to IAβ^b) (murine). As to the kind of experiment: inferred from IL-2 production by BO.97.10 with M12.C3 cells and added cOVA peptide.
In test [6] the target is IA^b -Ea protein bound by added cOVA peptide (murine; chicken) (UniProt P01012).
The target is the same in test [7]. The source holds these as a separate data set.

IEα^d Peptide (56-73) yielded a percent of the IA^b -Ea protein bound by IEα^d peptide in test [1] of 90%. In test [2], this substance yielded a percent of the IA^b -Ea protein with IEα^d bound to the binding site of 90%. Turning to thrombin (enzyme), the digestion of the complex as assessed by SDS-PAGE in test [3] and in test [4] was above 80% throughout. Consider “cOVA Peptide (327-339) (from UniProt P01012)”, for which the percent of the IA^b -Ea protein bound by cOVA peptide in test [5] came to 10%. In the case of BO.97.10 T hybridoma cells (TCR), in test [6], the IL-2 production in the presence of cOVA peptide (M12.C3 cells) (fold less IL-2 production) was 10. In addition, in test [7], the IL-2 production in the presence of cOVA peptide (fibroblasts) (fold less IL-2 production) is 10.
